Laboratory results: IntAct's records for PubMed 21460856

What was measured:
mdm2_human MDM2 = mdm2_human MDM2 (UniProt Q00987)
atm_human ATM = atm_human ATM (UniProt Q13315)
Chain of atm_human ATM (Q13315 whole entry): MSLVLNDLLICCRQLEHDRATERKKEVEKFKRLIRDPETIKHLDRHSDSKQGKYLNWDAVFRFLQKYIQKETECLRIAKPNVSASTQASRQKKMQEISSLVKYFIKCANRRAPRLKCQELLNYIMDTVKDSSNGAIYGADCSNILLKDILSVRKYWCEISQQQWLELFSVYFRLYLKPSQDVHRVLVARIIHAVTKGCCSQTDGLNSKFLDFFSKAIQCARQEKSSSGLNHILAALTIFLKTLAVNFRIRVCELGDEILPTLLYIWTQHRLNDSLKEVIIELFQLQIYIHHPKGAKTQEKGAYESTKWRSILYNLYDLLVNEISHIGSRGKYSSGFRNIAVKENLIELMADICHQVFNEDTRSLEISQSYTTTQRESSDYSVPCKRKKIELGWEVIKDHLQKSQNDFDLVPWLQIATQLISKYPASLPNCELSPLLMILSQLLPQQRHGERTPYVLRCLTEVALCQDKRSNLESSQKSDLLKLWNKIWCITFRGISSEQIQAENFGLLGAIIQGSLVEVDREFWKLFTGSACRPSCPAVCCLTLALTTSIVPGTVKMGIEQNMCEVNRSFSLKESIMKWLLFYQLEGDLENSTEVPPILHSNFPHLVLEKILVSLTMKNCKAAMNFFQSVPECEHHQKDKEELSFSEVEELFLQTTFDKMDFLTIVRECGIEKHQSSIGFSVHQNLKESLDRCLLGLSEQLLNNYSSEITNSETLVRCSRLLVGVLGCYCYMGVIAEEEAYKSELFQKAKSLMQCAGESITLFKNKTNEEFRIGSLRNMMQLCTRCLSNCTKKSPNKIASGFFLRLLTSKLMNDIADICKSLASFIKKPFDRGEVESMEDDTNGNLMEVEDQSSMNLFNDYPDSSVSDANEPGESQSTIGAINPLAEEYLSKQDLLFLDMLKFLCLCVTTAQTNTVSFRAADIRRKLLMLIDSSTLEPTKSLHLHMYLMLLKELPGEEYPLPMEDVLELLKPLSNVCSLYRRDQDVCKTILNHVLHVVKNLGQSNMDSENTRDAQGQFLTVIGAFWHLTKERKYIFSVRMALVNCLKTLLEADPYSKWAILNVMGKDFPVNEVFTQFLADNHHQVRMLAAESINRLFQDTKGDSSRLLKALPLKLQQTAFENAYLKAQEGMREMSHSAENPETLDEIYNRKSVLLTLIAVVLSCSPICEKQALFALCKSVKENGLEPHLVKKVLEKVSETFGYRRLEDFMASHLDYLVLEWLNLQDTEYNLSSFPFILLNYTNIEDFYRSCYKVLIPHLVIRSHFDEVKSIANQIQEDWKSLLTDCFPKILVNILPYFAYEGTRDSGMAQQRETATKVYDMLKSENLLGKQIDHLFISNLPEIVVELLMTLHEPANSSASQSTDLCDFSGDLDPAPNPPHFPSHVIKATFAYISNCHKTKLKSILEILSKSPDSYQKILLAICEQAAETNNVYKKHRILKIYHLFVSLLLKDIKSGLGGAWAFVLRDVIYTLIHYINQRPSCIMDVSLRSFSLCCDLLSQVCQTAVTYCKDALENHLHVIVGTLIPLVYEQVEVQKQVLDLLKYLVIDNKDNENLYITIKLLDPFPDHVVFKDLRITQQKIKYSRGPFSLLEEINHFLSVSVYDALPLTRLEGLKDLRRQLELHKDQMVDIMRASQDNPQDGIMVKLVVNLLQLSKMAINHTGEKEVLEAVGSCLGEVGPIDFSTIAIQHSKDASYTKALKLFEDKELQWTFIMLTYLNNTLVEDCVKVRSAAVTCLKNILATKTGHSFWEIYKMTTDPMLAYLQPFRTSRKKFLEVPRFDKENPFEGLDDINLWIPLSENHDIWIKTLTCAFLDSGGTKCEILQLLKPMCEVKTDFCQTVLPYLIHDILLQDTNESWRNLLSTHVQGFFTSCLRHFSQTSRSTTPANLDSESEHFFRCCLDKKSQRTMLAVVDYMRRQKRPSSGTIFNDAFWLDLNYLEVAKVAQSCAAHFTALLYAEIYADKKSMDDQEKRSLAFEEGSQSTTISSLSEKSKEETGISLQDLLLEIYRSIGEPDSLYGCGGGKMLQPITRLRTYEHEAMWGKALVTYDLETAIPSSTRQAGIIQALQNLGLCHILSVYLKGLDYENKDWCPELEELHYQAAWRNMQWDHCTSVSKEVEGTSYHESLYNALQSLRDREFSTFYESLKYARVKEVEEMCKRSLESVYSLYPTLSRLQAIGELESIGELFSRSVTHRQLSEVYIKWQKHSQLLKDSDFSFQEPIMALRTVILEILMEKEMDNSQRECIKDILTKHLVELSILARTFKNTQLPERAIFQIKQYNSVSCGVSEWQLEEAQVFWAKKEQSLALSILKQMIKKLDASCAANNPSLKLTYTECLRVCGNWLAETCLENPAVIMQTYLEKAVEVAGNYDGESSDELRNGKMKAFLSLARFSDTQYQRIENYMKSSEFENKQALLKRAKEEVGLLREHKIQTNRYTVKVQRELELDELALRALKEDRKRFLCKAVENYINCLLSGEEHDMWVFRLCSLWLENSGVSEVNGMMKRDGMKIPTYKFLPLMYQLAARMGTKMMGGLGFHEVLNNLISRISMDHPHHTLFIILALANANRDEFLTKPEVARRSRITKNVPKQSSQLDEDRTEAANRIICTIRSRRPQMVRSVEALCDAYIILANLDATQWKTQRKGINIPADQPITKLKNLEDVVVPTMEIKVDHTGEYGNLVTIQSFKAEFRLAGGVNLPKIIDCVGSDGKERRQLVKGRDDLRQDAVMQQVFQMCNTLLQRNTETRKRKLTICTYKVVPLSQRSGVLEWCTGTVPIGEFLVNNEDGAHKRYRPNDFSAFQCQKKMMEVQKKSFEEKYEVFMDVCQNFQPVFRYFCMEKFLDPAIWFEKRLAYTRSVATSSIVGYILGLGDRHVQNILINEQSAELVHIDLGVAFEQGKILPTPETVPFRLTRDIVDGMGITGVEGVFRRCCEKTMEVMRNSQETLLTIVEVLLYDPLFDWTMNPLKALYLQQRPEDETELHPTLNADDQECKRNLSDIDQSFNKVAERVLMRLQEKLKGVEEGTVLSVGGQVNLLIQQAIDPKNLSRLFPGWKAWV

Chain of mdm2_human MDM2 (Q00987 whole entry, looked up): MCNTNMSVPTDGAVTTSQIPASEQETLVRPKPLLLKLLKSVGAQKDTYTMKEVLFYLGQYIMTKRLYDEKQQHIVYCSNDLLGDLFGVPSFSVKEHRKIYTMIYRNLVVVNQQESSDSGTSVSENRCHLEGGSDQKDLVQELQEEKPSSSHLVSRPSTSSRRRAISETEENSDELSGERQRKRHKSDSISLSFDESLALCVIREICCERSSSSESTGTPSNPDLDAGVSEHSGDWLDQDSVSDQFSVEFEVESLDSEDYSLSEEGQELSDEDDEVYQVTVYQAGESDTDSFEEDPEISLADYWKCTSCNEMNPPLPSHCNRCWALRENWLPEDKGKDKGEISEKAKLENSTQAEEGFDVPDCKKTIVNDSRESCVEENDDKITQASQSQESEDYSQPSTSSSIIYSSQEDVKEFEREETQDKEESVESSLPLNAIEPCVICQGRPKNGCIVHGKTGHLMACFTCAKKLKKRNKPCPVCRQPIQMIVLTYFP

Q: “Serine-protein kinase ATM (Homo sapiens), Q13315 D2870A;N2875K” was tested. Which “effect of a mutation on the interaction” value (PPP2R5C, Q13362-1) did it give?
A: disrupting interaction

Q: With “Serine/threonine-protein phosphatase 2A 56 kDa regulatory subunit gamma isoform (Homo sapiens) (from UniProt Q13362) S520D” as the substance, how does the “effect of a mutation on the interaction” value (mdm2_human MDM2) read?
A: disrupting interaction

Q: For “Serine/threonine-protein phosphatase 2A 56 kDa regulatory subunit gamma isoform (Homo sapiens) (from UniProt Q13362-1) S520A”, which “effect of a mutation on the interaction” value (atm_human ATM) is on record?
A: disrupting interaction
